In the supplement of paper PMC10065799, “High-throughput profiling of sequence recognition by tyrosine kinases and SH2 domains using bacterial peptide display” (eLife, 2023):

Experiments:
EPHB2 = EPHB2 (UniProt P29323); test: phosphorylation enrichment, bacterial display (enrichment ratio); higher = better substrate or ligand; peptides without Tyr show the background
FGFR1 = FGFR1 (UniProt P11362); test: as above
AncSZ = test: as above
FGFR3 = FGFR3 (UniProt P22607); test: as above
MERTK = MERTK (UniProt Q12866); test: as above
EPHB1 = EPHB1 (UniProt P54762); test: as above
Fer (mouse) = test: as above
c-Abl (mouse) = test: as above
c-Src = test: as above
Jak2 = Jak2 (UniProt O60674); test: as above
Hck = Hck (UniProt P08631); test: as above
Fyn = Fyn (UniProt P06241); test: as above
Fes = Fes (UniProt P07332); test: as above
SHP2-C SH2 = test: SH2 binding enrichment of the phosphorylated peptide, bacterial display (enrichment ratio); higher = better substrate or ligand; peptides without Tyr show the background
Grb2 SH2 = Grb2 SH2 (UniProt P62993); test: as above
c-Src SH2 = test: as above
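For SH2 binding enrichment of the phosphorylated peptide, bacterial display in this document: peptide library displayed on the E. coli surface as eCPX fusions, selected cells deep-sequenced, score is each peptide's frequency after selection divided by its frequency in the input.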
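For phosphorylation enrichment, bacterial display in this document: 11-residue human phosphosite peptides and single-mutation variants displayed on the E. coli surface, counted by deep sequencing, each peptide's frequency after selection divided by its frequency in the unselected input library; frequency after pTyr selection over input frequency; kinase dosed for 20-30% of maximal phosphorylation in three min.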

Chain of Hck (P08631 whole entry, looked up): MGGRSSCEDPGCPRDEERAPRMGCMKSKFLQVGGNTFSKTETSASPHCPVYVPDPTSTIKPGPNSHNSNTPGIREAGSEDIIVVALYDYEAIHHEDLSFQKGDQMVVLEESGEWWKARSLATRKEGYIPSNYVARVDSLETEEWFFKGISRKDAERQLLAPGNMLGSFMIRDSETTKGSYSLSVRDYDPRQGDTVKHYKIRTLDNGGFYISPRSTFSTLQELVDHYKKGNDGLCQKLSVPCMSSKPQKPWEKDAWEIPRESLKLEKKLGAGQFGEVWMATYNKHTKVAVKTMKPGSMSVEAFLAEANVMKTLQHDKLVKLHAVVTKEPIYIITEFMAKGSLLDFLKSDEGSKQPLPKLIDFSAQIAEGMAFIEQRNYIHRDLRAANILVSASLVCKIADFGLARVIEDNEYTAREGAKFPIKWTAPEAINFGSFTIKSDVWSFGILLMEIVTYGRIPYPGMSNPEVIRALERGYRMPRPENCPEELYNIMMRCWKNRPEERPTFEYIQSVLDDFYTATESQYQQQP
Chain of Jak2 (O60674 whole entry, looked up): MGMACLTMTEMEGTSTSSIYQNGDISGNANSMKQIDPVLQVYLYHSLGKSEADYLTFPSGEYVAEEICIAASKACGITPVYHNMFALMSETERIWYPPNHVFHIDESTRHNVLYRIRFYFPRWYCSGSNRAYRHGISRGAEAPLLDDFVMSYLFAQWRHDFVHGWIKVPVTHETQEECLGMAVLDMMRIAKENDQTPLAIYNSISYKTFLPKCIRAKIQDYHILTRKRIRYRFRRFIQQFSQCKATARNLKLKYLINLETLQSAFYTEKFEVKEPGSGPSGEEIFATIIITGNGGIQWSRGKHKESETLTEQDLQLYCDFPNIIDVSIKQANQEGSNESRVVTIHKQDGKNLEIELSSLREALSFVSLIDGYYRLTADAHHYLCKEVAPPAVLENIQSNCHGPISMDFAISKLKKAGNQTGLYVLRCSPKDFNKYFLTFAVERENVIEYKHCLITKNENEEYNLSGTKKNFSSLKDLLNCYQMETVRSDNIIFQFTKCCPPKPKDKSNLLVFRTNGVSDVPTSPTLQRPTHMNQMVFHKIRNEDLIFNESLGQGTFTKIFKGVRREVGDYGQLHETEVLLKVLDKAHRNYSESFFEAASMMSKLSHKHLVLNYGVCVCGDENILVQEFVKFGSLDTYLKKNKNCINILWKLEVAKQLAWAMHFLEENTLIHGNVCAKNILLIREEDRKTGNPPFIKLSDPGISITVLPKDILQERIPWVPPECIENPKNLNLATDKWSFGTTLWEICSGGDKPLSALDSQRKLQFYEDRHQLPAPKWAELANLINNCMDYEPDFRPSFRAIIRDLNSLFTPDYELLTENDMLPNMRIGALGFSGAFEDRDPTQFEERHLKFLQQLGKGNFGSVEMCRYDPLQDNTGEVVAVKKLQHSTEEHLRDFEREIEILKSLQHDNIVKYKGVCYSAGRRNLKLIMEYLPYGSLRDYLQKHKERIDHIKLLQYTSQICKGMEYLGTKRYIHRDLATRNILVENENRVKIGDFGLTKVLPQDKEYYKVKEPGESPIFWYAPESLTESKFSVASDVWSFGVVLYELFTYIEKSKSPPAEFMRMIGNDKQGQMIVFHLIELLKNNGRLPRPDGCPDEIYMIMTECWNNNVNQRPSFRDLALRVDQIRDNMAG
Chain of FGFR1 (P11362 whole entry, looked up): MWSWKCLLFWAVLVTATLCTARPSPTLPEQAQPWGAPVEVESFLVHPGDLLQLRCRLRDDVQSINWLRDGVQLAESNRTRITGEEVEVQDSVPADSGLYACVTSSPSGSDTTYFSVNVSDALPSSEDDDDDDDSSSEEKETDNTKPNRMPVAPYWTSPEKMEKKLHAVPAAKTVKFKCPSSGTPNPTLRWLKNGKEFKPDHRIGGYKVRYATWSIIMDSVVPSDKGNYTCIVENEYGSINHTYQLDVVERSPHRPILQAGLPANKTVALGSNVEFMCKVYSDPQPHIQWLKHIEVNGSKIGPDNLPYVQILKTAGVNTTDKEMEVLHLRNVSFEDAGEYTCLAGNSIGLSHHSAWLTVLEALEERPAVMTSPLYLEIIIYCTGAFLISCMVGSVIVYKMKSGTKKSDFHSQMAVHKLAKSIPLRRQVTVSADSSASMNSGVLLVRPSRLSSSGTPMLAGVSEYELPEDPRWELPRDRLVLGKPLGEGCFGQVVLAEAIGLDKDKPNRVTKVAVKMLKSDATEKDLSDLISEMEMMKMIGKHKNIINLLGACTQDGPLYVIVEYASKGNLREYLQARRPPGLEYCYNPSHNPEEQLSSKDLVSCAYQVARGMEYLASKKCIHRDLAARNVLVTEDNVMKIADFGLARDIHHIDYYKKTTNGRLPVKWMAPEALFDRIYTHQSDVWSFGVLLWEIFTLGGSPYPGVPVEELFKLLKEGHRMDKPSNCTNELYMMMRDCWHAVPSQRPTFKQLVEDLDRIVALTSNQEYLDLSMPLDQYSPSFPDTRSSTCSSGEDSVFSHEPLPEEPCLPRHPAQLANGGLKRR
Chain of Fyn (P06241 whole entry, looked up): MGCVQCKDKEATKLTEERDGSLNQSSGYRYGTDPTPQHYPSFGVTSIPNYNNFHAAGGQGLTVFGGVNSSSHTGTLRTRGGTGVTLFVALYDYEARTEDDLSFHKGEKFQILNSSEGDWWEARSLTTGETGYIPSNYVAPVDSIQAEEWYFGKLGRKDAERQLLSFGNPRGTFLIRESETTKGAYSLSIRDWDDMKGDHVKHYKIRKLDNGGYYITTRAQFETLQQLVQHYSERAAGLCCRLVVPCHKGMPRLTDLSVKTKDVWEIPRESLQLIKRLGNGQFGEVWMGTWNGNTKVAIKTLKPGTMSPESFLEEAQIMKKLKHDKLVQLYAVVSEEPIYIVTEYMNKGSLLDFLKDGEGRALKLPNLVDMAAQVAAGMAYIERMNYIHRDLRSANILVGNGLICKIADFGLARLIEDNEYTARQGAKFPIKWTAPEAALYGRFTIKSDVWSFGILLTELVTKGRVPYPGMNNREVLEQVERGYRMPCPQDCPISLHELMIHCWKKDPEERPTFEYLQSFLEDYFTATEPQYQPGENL
Chain of MERTK (Q12866 whole entry, looked up): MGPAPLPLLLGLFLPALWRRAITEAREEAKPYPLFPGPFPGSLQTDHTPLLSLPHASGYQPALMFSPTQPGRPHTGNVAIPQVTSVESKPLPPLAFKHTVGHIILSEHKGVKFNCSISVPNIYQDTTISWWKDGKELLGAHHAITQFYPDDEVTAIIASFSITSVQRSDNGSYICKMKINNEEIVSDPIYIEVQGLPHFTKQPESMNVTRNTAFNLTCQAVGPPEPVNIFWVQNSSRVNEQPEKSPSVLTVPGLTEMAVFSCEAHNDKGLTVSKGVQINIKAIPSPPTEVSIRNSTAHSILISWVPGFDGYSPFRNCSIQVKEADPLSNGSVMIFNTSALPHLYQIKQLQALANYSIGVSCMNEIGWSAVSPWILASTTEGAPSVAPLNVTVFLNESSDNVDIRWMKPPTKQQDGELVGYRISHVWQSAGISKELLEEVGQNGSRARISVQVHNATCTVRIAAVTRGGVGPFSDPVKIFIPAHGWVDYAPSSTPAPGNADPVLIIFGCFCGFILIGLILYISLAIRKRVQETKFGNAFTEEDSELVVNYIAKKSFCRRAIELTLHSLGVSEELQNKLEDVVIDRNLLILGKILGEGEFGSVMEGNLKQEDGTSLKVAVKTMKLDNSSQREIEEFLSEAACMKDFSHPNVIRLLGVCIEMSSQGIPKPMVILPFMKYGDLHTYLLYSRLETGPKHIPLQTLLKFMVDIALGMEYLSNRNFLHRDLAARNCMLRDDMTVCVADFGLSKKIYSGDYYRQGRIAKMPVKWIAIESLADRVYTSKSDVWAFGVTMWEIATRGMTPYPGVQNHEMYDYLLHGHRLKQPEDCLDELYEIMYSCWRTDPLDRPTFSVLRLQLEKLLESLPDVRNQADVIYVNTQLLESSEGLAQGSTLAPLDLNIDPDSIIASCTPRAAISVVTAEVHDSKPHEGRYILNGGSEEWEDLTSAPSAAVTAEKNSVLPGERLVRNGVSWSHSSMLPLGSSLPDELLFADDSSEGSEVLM
Chain of EPHB2 (P29323 whole entry, looked up): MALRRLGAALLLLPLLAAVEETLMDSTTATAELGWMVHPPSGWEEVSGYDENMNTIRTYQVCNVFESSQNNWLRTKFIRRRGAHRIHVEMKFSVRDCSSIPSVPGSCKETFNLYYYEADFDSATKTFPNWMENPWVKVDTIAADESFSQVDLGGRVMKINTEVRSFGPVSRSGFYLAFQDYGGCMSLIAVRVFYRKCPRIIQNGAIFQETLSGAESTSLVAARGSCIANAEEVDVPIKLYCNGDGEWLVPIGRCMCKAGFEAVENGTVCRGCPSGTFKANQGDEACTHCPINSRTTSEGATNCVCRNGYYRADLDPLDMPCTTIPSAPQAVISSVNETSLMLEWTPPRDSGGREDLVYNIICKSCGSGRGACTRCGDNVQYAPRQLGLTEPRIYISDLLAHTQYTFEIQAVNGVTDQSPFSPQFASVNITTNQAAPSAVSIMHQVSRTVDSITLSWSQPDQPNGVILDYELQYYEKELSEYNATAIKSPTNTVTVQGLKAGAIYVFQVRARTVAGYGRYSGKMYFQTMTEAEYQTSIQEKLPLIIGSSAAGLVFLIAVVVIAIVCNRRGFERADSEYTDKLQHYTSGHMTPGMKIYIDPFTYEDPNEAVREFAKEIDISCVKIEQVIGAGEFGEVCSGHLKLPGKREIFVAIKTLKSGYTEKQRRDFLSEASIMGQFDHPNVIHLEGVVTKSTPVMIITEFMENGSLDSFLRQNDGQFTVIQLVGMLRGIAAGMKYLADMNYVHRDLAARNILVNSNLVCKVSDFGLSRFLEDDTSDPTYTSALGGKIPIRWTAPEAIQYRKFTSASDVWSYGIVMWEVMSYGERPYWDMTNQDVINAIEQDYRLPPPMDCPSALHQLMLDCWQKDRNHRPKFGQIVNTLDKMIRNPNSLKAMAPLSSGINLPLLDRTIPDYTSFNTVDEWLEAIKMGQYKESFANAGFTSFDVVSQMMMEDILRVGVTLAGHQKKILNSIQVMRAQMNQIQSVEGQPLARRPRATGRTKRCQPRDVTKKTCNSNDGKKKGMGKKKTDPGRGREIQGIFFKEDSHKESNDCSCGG

Sequence	SH2 binding enrichment (SHP2-C SH2)	SH2 binding enrichment (Grb2 SH2)	SH2 binding enrichment (c-Src SH2)	phosphorylation enrichment (EPHB2)	phosphorylation enrichment (FGFR1)	phosphorylation enrichment (AncSZ)	phosphorylation enrichment (FGFR3)	phosphorylation enrichment (MERTK)	phosphorylation enrichment (EPHB1)	phosphorylation enrichment (Fer (mouse))	phosphorylation enrichment (c-Abl (mouse))	phosphorylation enrichment (c-Src)	phosphorylation enrichment (Jak2)	phosphorylation enrichment (Hck)	phosphorylation enrichment (Fyn)	phosphorylation enrichment (Fes)
SQGRQYQELPR [KCNH2_Y1009_R1005Q]	0.545	0.82	1.41	0.402	0.483	0.666	0.477	0.412	0.354	0.402	0.473	0.423	0.517	0.668	0.45	0.568
FRDMDYRSFPH [RBM10_Y41_R46H_YF]	0.787	0.911	0.565	0.388	0.577	0.55	0.449	0.385	0.442	0.407	0.549	0.436	0.667	0.314	0.419	0.698
GGFSRYDEGSG [RECQL5_Y484_D480G]	0.62	0.858	0.459	0.558	0.473	0.733	0.659	0.435	0.431	0.483	0.636	0.416	0.729	0.468	0.432	0.928
KSEMSYIDGEK [SORBS1_Y485]	0.68	0.697	0.467	0.999	0.659	0.899	0.592	0.479	0.72	0.493	0.586	0.449	0.736	0.469	0.502	0.848
NTGDYCDLYGG [PTPN11_Y63_Y63C]	0.747	1.01	0.988	11.3	7.05	2.71	4.75	0.838	9.45	1.48	0.877	2.91	1.04	3.78	2.26	1.16
MEVGQYFFVKC [CYBB_Y324_I325F]	0.61	0.716	0.44	0.8	4.99	2.28	4.7	1.13	0.861	0.801	1.39	0.667	2.56	0.719	0.551	1.69
RYFTTYDTNGR [CLCA1_Y665]	1.24	0.777	0.556	0.698	0.709	0.657	0.598	0.557	0.672	0.471	0.296	0.774	0.742	0.943	0.693	0.746
ATRDVYNPFET [SCAMP3_Y41_L38R]	0.658	0.703	0.427	0.454	0.54	0.835	0.598	0.485	0.454	0.457	0.617	1.48	0.901	1.06	1.08	1.03
QKLPSYILENN [VPS13B_Y2774]	0.762	0.755	0.607	0.701	0.625	1.53	0.938	0.529	0.787	0.681	1.11	0.499	1.49	0.792	0.629	1.94
GGGGSYNNFGN [HNRNPA1_Y312_D314N]	0.587	0.805	0.43	0.416	0.362	0.545	0.403	0.308	0.379	0.378	0.335	0.325	0.463	0.435	0.388	0.564
DLITAYRAHGF [PDHA1_Y118_H113D]	0.936	0.81	0.48	0.428	0.525	0.543	0.54	0.355	0.409	0.387	0.535	0.373	0.563	0.49	0.401	0.756
PQAVRYIFTID [DCX_Y103_G100A_YF]	3.09	1.53	1.54	0.59	1.01	1.15	0.841	0.595	1.29	0.524	0.863	0.385	0.806	0.673	0.639	1.76
HGVSSYDTVIS [LDLR_Y465]	0.795	0.936	6.43	0.865	0.801	1.19	0.706	0.811	0.515	0.638	0.779	0.441	0.911	0.846	0.818	1.15
PQAVTYAEVKH [LILRB4_Y360_K362E]	32.9	0.83	2.73	1.16	0.692	0.872	0.625	0.617	1.94	0.804	0.763	4.89	0.867	4.17	5.58	1.03
FGCTFYNQAIM [MCCC2_Y196_R193C]	0.608	0.685	0.534	0.777	0.529	1.4	1.04	0.365	0.825	0.647	0.968	0.47	1.32	0.597	0.472	1.54
RKQQLYIAMEE [CCDC39_Y593_T594I]	0.909	0.916	0.938	0.822	0.8	0.993	0.543	1	0.651	0.607	0.725	0.753	0.7	0.431	0.655	1.28
CTTIHYNYTCN [TP53_Y234_M237T]	1.86	1.47	3.29	0.556	0.47	0.756	0.624	0.403	0.492	0.476	0.585	0.414	0.726	0.416	0.445	0.837

Continued, in another order:

SH2 binding enrichment (SHP2-C SH2)	SH2 binding enrichment (Grb2 SH2)	SH2 binding enrichment (c-Src SH2)	Sequence	phosphorylation enrichment (EPHB2)	phosphorylation enrichment (FGFR1)	phosphorylation enrichment (AncSZ)	phosphorylation enrichment (FGFR3)	phosphorylation enrichment (MERTK)	phosphorylation enrichment (EPHB1)	phosphorylation enrichment (Fer (mouse))	phosphorylation enrichment (c-Abl (mouse))	phosphorylation enrichment (c-Src)	phosphorylation enrichment (Jak2)	phosphorylation enrichment (Hck)	phosphorylation enrichment (Fyn)	phosphorylation enrichment (Fes)
0.936	1.07	0.745	VTRLWYPVCFG [ITK_Y336_R335W]	0.699	1.11	1.17	1.36	0.412	0.66	0.509	0.89	0.403	1.02	0.488	0.502	1.35
0.511	0.757	0.464	EAVSIYQFHGQ [CBLC_Y402]	1.62	0.554	1.01	0.594	5.19	2.31	10.4	0.969	7.06	0.852	3.09	5.93	0.926
1.34	2.83	1.22	FGMQLYQNFMH [GRB14_Y347_YF]	2.41	0.544	1.06	0.772	2.89	3.53	5.17	0.777	3.67	0.971	3.03	2.84	1.04
0.632	0.854	5.53	GIYSGYDDAWD [POLR1C_Y36_N32I]	2.5	0.568	1.44	0.647	2.25	2.36	1.46	0.835	5.63	1.05	5.99	7.64	1.09
0.644	0.853	0.477	NVTRKYTRQIL [MAP3K2_Y463]	0.264	0.316	0.363	0.353	0.319	0.333	0.305	0.397	0.373	0.339	0.265	0.372	0.411
0.651	0.694	0.828	HGQVNYEEFVQ [CALM2_Y139_D134H]	5.8	0.795	1.89	1.02	0.92	6.37	1.26	0.911	0.803	1.24	1.37	1.28	1.92
2.25	1.02	0.893	WFPANYVKLLS [ITSN1_Y1132]	1.52	0.763	0.785	0.825	0.569	4.12	0.518	0.596	0.399	1.51	0.549	0.419	0.841
0.719	0.867	0.475	EVDELYREAPI [MYL12B_Y143]	0.654	0.86	1.27	1.11	0.598	0.784	0.62	0.962	0.52	1.29	0.705	0.654	1.39
0.66	0.802	0.457	SVTCAYSPALN [TP53_Y126_T125A]	0.577	0.557	1.26	0.757	0.525	0.726	0.64	0.79	0.583	0.98	0.608	0.616	1.2
0.497	0.92	0.605	VIEQRYNETWL [SLC2A4_Y56_S55R]	0.519	0.516	0.809	0.553	0.381	0.467	0.457	0.659	0.402	0.744	0.468	0.538	1.05
0.626	0.827	0.439	TDDMRYPMKSE [TGDS_Y302_N298D]	0.527	0.529	0.77	0.621	0.488	0.378	0.518	0.651	0.455	0.694	0.42	0.43	0.863
0.622	0.675	0.321	QIGRKYKKVRF [F8_Y442_R437Q]	0.44	0.807	0.84	1.11	0.923	0.902	0.836	0.502	1.03	1.62	1.19	0.795	1.04
0.896	1.05	0.728	FISVGYVDDTL [HLA-B_Y51_Q56L]	0.736	0.572	1.12	0.801	0.436	0.738	0.652	0.772	0.557	1.03	0.485	0.486	1.21
0.78	0.785	0.651	RGKEPYTKKAL [TTC21B_Y160]	0.698	0.568	0.815	0.522	0.724	0.596	0.299	0.933	0.829	0.773	0.436	0.438	1.01
0.613	0.805	1.2	RMGNLYDIDEN [GRIN2A_Y1246_D1251N]	1.44	0.876	1.52	1.22	1.03	1.16	0.864	2.11	3.1	3.11	1.86	4.25	2.16
0.736	0.849	0.662	AVEDQYFCVDC [FHL1_Y207_YF]	0.862	5.2	2.15	3.66	0.622	1.17	0.7	0.868	0.703	1.48	0.791	0.775	1.64
